Experiment [1] deals with FlSp NTTrp (Phe 11 to Trp mutant of FlSp NT) (Nephila clavipes). The experiment is described as follows: SEC; Superdex 75 Increase 10/300 GL, 200 μl of 2 mg/ml protein, 20 mM MES, 154 mM NaCl, 1 mM EDTA, pH 5.5; apparent MW from calibrants; monomer to dimer.
The target in experiment [2] is FlSp NT_(E79QE84QE119Q) (Nephila clavipes). The experiment is described as follows: SEC-MALS; Superdex 75 Increase 10/300 GL, 50 μg loaded, 20 mM MES, 150 mM NaCl, 1 mM EDTA, pH 5.5, room temperature; monomer to dimer.
Experiment [3] deals with WT FlSp NT (N-terminal domain of flagelliform spidroin from Nephila clavipes) (Nephila clavipes). The description is as above.
Experiment [4] shares this target. As to the kind of experiment: SEC; Superdex 75 Increase 10/300 GL, 200 μl of 2 mg/ml protein, 20 mM MES, 154 mM NaCl, 1 mM EDTA, pH 5.5; apparent MW from calibrants; monomer to dimer.
Experiment [5] concerns the target FlSp NT* (constitutive monomer mutant, Asp 41 and Lys 65 swapped). As to the kind of experiment: SEC-MALS. As to conditions: Superdex 75 increase SEC column.
A further experiment concerns the target FlSp NT_(E79QE84QE119Q). As to the kind of experiment: SEC-MALS. As to conditions: Superdex 75 increase SEC column.
Experiment [6] addresses T1, FlSp NT_(E79QE84QE119QE130Q).
T1 chain: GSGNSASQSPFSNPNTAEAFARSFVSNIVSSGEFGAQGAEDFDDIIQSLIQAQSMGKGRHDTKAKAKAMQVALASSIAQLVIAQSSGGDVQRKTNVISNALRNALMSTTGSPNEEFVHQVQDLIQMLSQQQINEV
As to the kind of experiment: SEC-MALS. As to conditions: chain shown with the change, Superdex 75 increase SEC column.

[7] abbreviates: pH 5.5 versus pH 8.0, parent: 2.0.

For the molecule “FlSp NTTrp (Phe 11 to Trp mutant of FlSp NT) (domain or fragment)”, in experiment [1], the apparent MW ratio between pH 5.5 and 8.0 came to 1.2.
Consider “FlSp NT_(E79QE84QE119Q) (domain or fragment)”, for which the MW ratio between pH 5.5 and 8.0 in experiment [2] amounted to 1.7.
“WT FlSp NT (N-terminal domain of flagelliform spidroin from Nephila clavipes) (domain or fragment)” had a stoichiometry N in experiment [3] of 2. Further, the apparent MW ratio between dimer (pH 5.5) and monomer (pH 8.0) in experiment [4] came out at 1.3.
Take “WT FlSp NT (N-terminal domain of flagelliform spidroin from Nephila clavipes) D41K; K65D”: the other: molecular mass by SEC-MALS worked out at 13.4 kDa in experiment [5] (pH 5.5, parent: 26.0) and 14.1 kDa in experiment [5] (pH 8.0, parent: 13.1). Also, the other: MW ratio between pH 5.5 and pH 8.0 in experiment [5] (setting [7]) amounted to 1.
For “WT FlSp NT (N-terminal domain of flagelliform spidroin from Nephila clavipes) E79Q; E84Q; E119Q”, the other: molecular mass by SEC-MALS with FlSp NT_(E79QE84QE119Q) (pH 5.5, parent: 26.0) turned out to be 24.4 kDa; with FlSp NT_(E79QE84QE119Q) (pH 8.0, parent: 13.1) it was 14.3 kDa.

B1: WT FlSp NT (N-terminal domain of flagelliform spidroin from Nephila clavipes) E79Q; E84Q; E119Q; E130Q (protein)
chain: T1 chain
With B1, the other: molecular mass by SEC-MALS in experiment [6] (pH 5.5, parent: 26.0) was 20.7 kDa; in experiment [6] (pH 8.0, parent: 13.1), 13.1 kDa. Also, in experiment [6] (setting [7]), the other: MW ratio between pH 5.5 and pH 8.0 worked out at 1.6.
